Experimental data as given in US20050136043A1, “TGFbeta signaling inhibitors” (Ludwig Institute for Cancer Research, priority 2003, published 2005).

Tests used:
[1] = system: TGFβ1-dependent stimulation of ARE-luc in Mv1Lu cells; assay: ARE-luc luciferase reporter assay (Smad2-responsive element) in Mv1Lu cells; type: cell-based; details: peptide 50 μM, TGFβ1 10 ng/ml, 18 hours
TβR-I (ALK-5) = target: T1, TβR-I (ALK-5) (Homo sapiens, UniProt P36897); assay: In vitro kinase assay (autophosphorylation) of receptor expressed in COS-7 cells; type: biochemical; details: 10 μM peptide, FIG. 5
T1 construct: made in house; host or cells: COS-7 cells (transfected, immunoprecipitated)
T1 sequence (P36897 34-503): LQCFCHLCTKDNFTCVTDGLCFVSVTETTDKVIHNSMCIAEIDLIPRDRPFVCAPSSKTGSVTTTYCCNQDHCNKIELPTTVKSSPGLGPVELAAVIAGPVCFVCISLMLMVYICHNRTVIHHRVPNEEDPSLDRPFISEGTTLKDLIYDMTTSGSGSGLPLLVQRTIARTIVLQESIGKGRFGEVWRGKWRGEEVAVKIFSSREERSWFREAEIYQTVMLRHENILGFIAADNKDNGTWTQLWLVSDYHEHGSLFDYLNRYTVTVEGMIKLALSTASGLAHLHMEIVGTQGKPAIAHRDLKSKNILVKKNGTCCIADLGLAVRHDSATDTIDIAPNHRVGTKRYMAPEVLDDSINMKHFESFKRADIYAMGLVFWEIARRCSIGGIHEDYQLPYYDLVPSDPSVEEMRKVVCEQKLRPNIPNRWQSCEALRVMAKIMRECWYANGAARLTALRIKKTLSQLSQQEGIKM
Procedure: (§1) For in vitro kinase assay of type I and type II TGFβ family receptors, p38α and SAPKα2 kinases, COS-7 cells were transfected with the kinase expression vectors or the control empty pcDNA3 vector using the DEAE-dextran method. Proteins were extracted in a lysis buffer (50 mM Tris-HCl, pH 7.5, 50 mM NaCl, 1% NP-40, 10 μg/mL aprotinin, 0.1 mM PMSF). HA-tagged proteins (ALK1 to ALK7, p38R, SAPKR2) were immunoprecipitated with anti-HA antibody (12CA5; Roche); His6-tagged proteins (type II receptors) were precipitated with Ni-NTA agarose (Qiagen). The precipitates were washed in extraction buffer, with 20 mM imidazole for Ni-NTA agarose-precipitated proteins, and two times with kinase buffer (20 mM HEPES, pH 7.4, 10 mM MgCl2, 2 mM MnCl2, 1 mM DTT). The kinase reaction was initiated by addition of 20 μL of kinase buffer containing 0.5 μCi of [γ-32P]ATP, 5.0 μM ATP, and inhibitory peptides at a final concentration of 10 μM. The reaction was performed at 22° C. for 20 min and terminated by addition of SDS-containing sample buffer and boiling for 5 min. The reaction products were analyzed by SDS-PAGE and exposure in a Fuji X2000 phosphorimager. Equal loading was controlled by immunoblotting aliquots of the samples with a HA probe (Y-11; Santa Cruz) or anti-His antibody (Qiagen).
(§2) To evaluate whether the substrate-mimicking peptides affect kinases of type I and type II reptors of the TGFβ family, we studied the influence of peptides on authophosphorylation of all known mammalian type I receptors [ALK-1, ActR-I (ALK-2), BMPR-IA (ALK-3), ActR-IB (ALK-4), TβR-I (ALK-5), BMPR-IB (ALK-6), and ALK-7], TβRII, ActR-II, BMPR-II, p38R, and SAPKR2 (FIG. 5). The kinases were expressed in COS-7 cells and purified by using specific anti-tag antibodies or Ni-NTA agarose, and kinase activity was tested in the presence of peptides.

TβRII = target: T2, TβRII (Homo sapiens, UniProt P37173); assay: as above; type: biochemical; details: 10 μM peptide, FIG. 5
T2 construct: made in house; host or cells: COS-7 cells (transfected, Ni-NTA precipitated)
T2 sequence (P37173 23-567, species assumed): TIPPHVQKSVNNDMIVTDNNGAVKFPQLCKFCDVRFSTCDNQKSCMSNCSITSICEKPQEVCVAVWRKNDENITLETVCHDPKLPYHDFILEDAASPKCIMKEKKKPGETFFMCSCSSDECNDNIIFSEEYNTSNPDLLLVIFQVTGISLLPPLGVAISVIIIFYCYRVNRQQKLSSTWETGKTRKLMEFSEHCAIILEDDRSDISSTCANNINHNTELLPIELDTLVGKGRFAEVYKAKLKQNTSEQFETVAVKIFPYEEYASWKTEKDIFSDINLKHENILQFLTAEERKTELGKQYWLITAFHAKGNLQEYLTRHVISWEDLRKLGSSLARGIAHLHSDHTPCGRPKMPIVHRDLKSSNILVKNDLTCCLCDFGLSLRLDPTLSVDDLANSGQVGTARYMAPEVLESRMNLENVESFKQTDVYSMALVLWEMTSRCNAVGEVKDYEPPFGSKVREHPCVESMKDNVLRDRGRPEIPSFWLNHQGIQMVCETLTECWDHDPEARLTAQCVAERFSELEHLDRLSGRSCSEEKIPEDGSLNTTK
Procedure: as §1, §2

GST-TβR-I = target: T3, GST-TβR-I (Homo sapiens, UniProt P36897, T204D); assay: GST-TβR-I autophosphorylation assay; type: biochemical; details: peptides at 1 and 10 μM, FIG. 4A
T3 construct: the complete cytoplasmic part (amino acid residues 148-503) of constitutively active TβR-I (T204D) FLAG-tagged at the C-terminus; made in house; host or cells: E. coli
T3 sequence (P36897 148-503 T204D): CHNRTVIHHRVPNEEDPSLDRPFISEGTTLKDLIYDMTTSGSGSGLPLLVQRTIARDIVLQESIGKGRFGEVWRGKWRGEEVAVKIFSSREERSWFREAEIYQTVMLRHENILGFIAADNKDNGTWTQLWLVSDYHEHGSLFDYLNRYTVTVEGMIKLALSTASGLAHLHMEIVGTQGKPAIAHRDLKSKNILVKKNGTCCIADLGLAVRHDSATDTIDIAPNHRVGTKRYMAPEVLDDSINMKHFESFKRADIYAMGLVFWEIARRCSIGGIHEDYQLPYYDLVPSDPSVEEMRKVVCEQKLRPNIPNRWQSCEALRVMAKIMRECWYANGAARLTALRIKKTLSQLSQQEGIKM
Procedure: In vitro kinase assay: GST-TβRI activity was assayed in vitro using the known TβR-I substrates GST-Smad3deltaMH1, GST-Smad2; GST-Smad1 was used as a control for specificity. The reaction mixture (20 μl) contained 20 mM HEPES (pH 7.4), 10 mM MgCl2, 2 mM MnCl2, 1 mM dithiothreitol (DTT), 5 μM ATP plus 0.5 μCi [γ^32P]ATP (Redivue, Amersham Biosciences), and inhibitors at different concentrations. The reaction was initiated by an addition of 0.02 μg purified GST-TβRI, followed by incubation at 22° C. for 20 min. Reaction was terminated by addition of 5 μl of 5× SDS-sample buffer. Samples were subjected to SDS-PAGE followed by analysis in a FujiX2000 phosphorimager. For all in vitro enzyme assays, the percent inhibition was calculated as 100×(1-Ai/A0), where Ai and A0 are levels of GST-Smad phosphorylation in the presence and absence of inhibitors, respectively. […] Phosphorylated GST-Smad3deltaMH1 and autophosphorylated GST-TβRI were analyzed by tryptic phosphopeptide mapping, as described previously.
A GST-TβR-I autophosphorylation assay was performed in the absence or presence of antp-Sm2S (SEQ ID NO:3), antp-Sm2A (SEQ ID NO:2) and antp-Sm5A (SEQ ID NO:4) peptides at concentrations of 1 and 10 μM, as indicated (FIG. 4A).

| Sequence | Inhibition of TGFβ1-dependent stimulation of ARE-luc [1] | Effect on TβR-I kinase (TβR-I (ALK-5)) | Effect on TβRII kinase (TβRII) | Inhibition of autophosphorylation of GST-TβR-I (GST-TβR-I) | Effect on TGFβ1-dependent stimulation of ARE-luc [1] |
| --- | --- | --- | --- | --- | --- |
| RQIKIWFQNRRMKWKKTQMGSPSVRCSAMA (listed as Homo sapiens) [antp-Sm2A] | up to 31% | inhibited | without any effect | had a stronger effect |  |
| RQIKIWFQNRRMKWKKTQMGSPSVRCSSMS (listed as Homo sapiens) [antp-Sm2S, penetratin fused to the C-terminus of wild-type Smad2] |  | inhibited | without any effect | inhibited autophosphorylation | no effect |
